From patent US20200247855A1, “THERAPY AND DIAGNOSTICS” (OXFORD UNIVERSITY INNOVATION LIMITED, priority 2017, published 2020)

T1: CCL17_HUMAN (Homo sapiens, UniProt Q92583)
T1 sequence (Q92583 24-94): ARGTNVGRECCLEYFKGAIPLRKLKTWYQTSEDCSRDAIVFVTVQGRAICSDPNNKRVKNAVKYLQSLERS

T2: CCL18_HUMAN (Homo sapiens, UniProt P55774)
T2 sequence (P55774 21-89): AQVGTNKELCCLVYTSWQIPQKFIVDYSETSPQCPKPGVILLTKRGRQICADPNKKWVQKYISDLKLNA

T3: CCL19_HUMAN (Homo sapiens, UniProt Q99731)
T3 sequence (Q99731 22-98): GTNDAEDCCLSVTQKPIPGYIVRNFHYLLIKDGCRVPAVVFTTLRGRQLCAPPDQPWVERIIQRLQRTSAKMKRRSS

T4: CCL1_HUMAN (Homo sapiens, UniProt P22362)
T4 sequence (P22362 24-96): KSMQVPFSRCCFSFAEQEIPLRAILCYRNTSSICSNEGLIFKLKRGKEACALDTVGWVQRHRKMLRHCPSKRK

T5: CCL24_HUMAN (Homo sapiens, UniProt O00175)
T5 sequence (O00175 27-119): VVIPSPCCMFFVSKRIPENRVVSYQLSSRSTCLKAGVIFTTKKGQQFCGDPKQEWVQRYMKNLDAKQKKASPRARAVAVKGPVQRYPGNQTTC

T6: CCL27_HUMAN (Homo sapiens, UniProt Q9Y4X3)
T6 sequence (Q9Y4X3 25-112): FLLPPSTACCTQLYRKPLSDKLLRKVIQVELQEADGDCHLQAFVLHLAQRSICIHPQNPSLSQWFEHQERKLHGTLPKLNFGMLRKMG

T7: CCL4_HUMAN (Homo sapiens, UniProt P13236)
T7 sequence (P13236 24-92): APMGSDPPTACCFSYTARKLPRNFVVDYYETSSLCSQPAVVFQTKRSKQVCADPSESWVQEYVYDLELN

T8: CCL5_HUMAN (Homo sapiens, UniProt P13501)
T8 sequence (P13501 24-91): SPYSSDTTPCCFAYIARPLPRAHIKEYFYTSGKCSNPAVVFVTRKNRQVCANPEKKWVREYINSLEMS

T9: CCL23_HUMAN (Homo sapiens, UniProt P55773)
T9 sequence (P55773 22-120): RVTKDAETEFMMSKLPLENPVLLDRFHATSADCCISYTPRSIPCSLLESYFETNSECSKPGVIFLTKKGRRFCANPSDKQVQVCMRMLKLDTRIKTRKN


Key:
Test in all cases: Biolayer interferometry (BLI) binding
CCL13_HUMAN = CCL13_HUMAN (Homo sapiens, UniProt Q99616)
How it was run: (§1)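 His-tagged purified tick CKBPs were loaded on Ni-NTA sensors and screened against chemokine at 300 nM. Chemokines that bound in this screen were retested at several concentrations. Association, equilibrium and dissociation curves were fitted to give Kd in molar units.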

CCL17_HUMAN = target: T1, CCL17_HUMAN
How it was run: as §1

CCL18_HUMAN = target: T2, CCL18_HUMAN
How it was run: as §1

CCL19_HUMAN = target: T3, CCL19_HUMAN
How it was run: as §1

CCL1_HUMAN = target: T4, CCL1_HUMAN
How it was run: as §1

CCL20_HUMAN = CCL20_HUMAN (Homo sapiens, UniProt P78556)
How it was run: as §1

CCL24_HUMAN = target: T5, CCL24_HUMAN
How it was run: as §1

CCL27_HUMAN = target: T6, CCL27_HUMAN
How it was run: as §1

CCL4_HUMAN = target: T7, CCL4_HUMAN
How it was run: as §1

CCL5_HUMAN = target: T8, CCL5_HUMAN
How it was run: as §1

CCL23_HUMAN = target: T9, CCL23_HUMAN
How it was run: as §1

CCL2_HUMAN = CCL2_HUMAN (Homo sapiens, UniProt P13500)
How it was run: as §1

CCL2_HUMAN, sequence (P13500 24-99): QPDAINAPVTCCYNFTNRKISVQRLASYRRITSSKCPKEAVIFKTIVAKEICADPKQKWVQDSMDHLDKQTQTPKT
CCL20_HUMAN, sequence (P78556 27-96): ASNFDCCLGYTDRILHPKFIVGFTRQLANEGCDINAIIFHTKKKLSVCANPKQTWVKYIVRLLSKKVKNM
CCL13_HUMAN, sequence (Q99616 17-98): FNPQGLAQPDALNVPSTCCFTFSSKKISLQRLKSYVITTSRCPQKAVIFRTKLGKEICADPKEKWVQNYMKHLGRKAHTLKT

Row | Molecule | Kd (CCL13_HUMAN) | Kd (CCL17_HUMAN) | Kd (CCL18_HUMAN) | Kd (CCL19_HUMAN) | Kd (CCL1_HUMAN) | Kd (CCL20_HUMAN) | Kd (CCL24_HUMAN) | Kd (CCL27_HUMAN) | Kd (CCL4_HUMAN) | Kd (CCL5_HUMAN) | Kd (CCL23_HUMAN) | Kd (CCL2_HUMAN)
1 | P1243_AMBAM: tick CKBP, Amblyomma americanum; AAM-02 stated identical (protein, listed as Amblyomma americanum) RNHTEDNSTEYYDYEEARCACPARHLNNTNGTVLKLLGCHYFCNGTLCTAPDGYPCYNLTAQQVRTLTTYPNTSCAVGVCMKGTCVKNGTMEQCFKTP | 0.788 nM | 0.734 nM | 0.00501 nM | 0.592 nM | 21.3 nM | 8.34 nM | 7.39 nM | 15.1 nM | 15.3 nM | 1.74 nM |  | 
2 | P672_RHIPU: tick CKBP, Rhipicephalus pulchellus (protein, listed as Rhipicephalus pulchellus) VCEVSEQEGVGEDNATEDEDYEDFFKPVTCYFANSTVGPLRPPNCTVVCTNNTAWWNDTKSDGGHCYSEYRPEKRTHSREIYNCTIGVCGNGTCIANHTYADCW |  |  |  |  |  |  |  |  |  |  | 10 nM | 9.1 nM
